These results are taken from publication PMC11046786.

In the assay the target is Psilocybe mexicana IasA (indole-3-acetaldehyde synthase), C-terminally hexahistidine-tagged (Psilocybe mexicana). Description: SEC; Superdex 200 increase 10/300 GL, native protein, 50 mM sodium phosphate, 150 mM NaCl, pH 7.2, 0.5 mL/min. A general note: In gel filtration, larger molecules generally elute earlier.

“Psilocybe mexicana IasA (indole-3-acetaldehyde synthase), C-terminally hexahistidine-tagged (enzyme)” returned a stoichiometry N of 2.

As a reminder, the stoichiometry N is a count of units in the complex or per binding partner.
